The record followed here is the supplement of paper PMC12042874.

± gives the uncertainty stated by the source.

A short description of this series: amyloid nucleation score (Sup35N fusion, yeast selection) (log enrichment); library NNK1; higher = more nucleation; inactive = no reads after selection. A digest of the protocol: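 The nucleation score equals the log enrichment of output over input reads from DiMSum, centred on the mode score of non-aggregating sequences. It was computed only for sequences with 100 or more input reads. The reads came from Illumina sequencing of plasmid inserts from psi-negative yeast expressing Sup35N fused to peptides of 20 random codons, induced with 100 μM copper sulfate for 24 hours and grown 7 days at 30°C without adenine and uracil.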
In the case of LVPCSWFYLDRSAQDSDCFS, the amyloid nucleation score is -0.754 ± 1.1.

Regarding SHQVVGGLLTYSVWCKCLGC, the amyloid nucleation score was found to be 3.92 ± 0.059.

Take RGFMWLACITCFYAVCYNVS: the amyloid nucleation score stood at 0.005 ± 0.45.

As for LLNLHGSLMYLPSDLLGSHS, the amyloid nucleation score came out at 0.156 ± 0.56.

On to ASSIDYQRTS, for which the amyloid nucleation score is 0.322 ± 0.71.

Consider MIRQFSVSICSTRSVCVHPR, for which the amyloid nucleation score is -0.135 ± 0.59.

With RYEMSVHGV, the amyloid nucleation score came out at 0.391 ± 0.66.

Regarding PYSAQAFERRSHAIRGVSKN, the amyloid nucleation score is -0.438 ± 0.44.

YNSTAIHNYENRRDLHQLYL had an amyloid nucleation score of 0.139 ± 0.33.

DTENPSYMNVNCYWRLLFSR returned an amyloid nucleation score of 0.669 ± 0.4.

Consider AWWRCCGTLRTVRSAAKGLM, for which the amyloid nucleation score was -0.292 ± 1.1.

As to HIMRDV, the amyloid nucleation score is -1.13 ± 1.4.

For HSFFMFP, the amyloid nucleation score is -0.39 ± 0.73.

For the substance LRYILFKNPSPNNIESL, the amyloid nucleation score was -0.194 ± 0.53.

As for FSGQAITLVCWIVGQILPFS, the amyloid nucleation score entry is “inactive”.

Substance HCPELLLPPSKCTIINGNDK had an amyloid nucleation score of 1.52 ± 0.38.

In turn, FSQVSEEIIGVFLSISYCIL had an amyloid nucleation score of 2.93 ± 0.074.

As for SVIRDWLSGACSGTTEGRRT, the amyloid nucleation score was -0.295 ± 0.43.

For the substance CFTICFVGYCSRVKGWLMQR, the amyloid nucleation score is -0.617 ± 0.71.

Turning to SESLWDRGTVPKRPCAASLQ, the amyloid nucleation score entry was “inactive”.

Substance INDCYFMWGNLFCYVCVMLL displayed an amyloid nucleation score of 1.66 ± 0.46.

Consider GPPSWSELDFHYCVGGWFYP, for which the amyloid nucleation score is -0.456 ± 0.56.

Regarding RGTGLICCTNVCGRTWKGHN, the amyloid nucleation score was 7.406 ± 0.047.

For YDKFPTLVMGAKRSGWG, the amyloid nucleation score was -0.761 ± 0.78.

For ITMVISLCALFMSRSIIFKG, the amyloid nucleation score was -0.154 ± 1.

As to VRLAL, the amyloid nucleation score is -0.27 ± 0.26.

On to IISKGSWSKSTDFGGLM, for which the amyloid nucleation score is -1.83 ± 1.7.

AVITLQVHLLPEYFQAACIT: the amyloid nucleation score was 0.154 ± 0.38.

YRLGSKISNSVKPRFDRLVE: the amyloid nucleation score entry is “inactive”.

Take QKRAMYDLGCSFSLFNLCYQ: the amyloid nucleation score amounted to 5.28 ± 0.062.

With VSWENPSINLRRADLPCPLF, the amyloid nucleation score was determined as 0.521 ± 0.57.

For the substance AFNYRSVCWLLGTGSSSWSE, the amyloid nucleation score entry was “inactive”.

Turning to GRSCFGEHILNTPAISCNIT, the amyloid nucleation score is -0.288 ± 0.35.

In the case of GQFEFCMFAQYGAS, the amyloid nucleation score was -1.14 ± 2.4.

Regarding LDRLMESGDFGWKYIMG, the amyloid nucleation score result is “inactive”.

With CSSALGIMKWTRIYVCRGRG, the amyloid nucleation score worked out at 1.6 ± 0.24.

In turn, ALPAMTQDKWHMNALRNYLD showed an amyloid nucleation score of 1.48 ± 0.81.

Turning to GCVTYIYGCMLYCEEAFR, the amyloid nucleation score amounted to 5.17 ± 0.085.

For SVILIGRRDDHASSIRVIGS, the amyloid nucleation score is -0.752 ± 0.69.

For the substance HHTQE, the amyloid nucleation score is -0.557 ± 1.6.

LPHYNMLSPRIIRTLVVERF displayed an amyloid nucleation score of 0.694 ± 1.1.

With KNWARIMRNRNYSVSAILW, the amyloid nucleation score turned out to be 0.163 ± 0.61.

Substance YEQVNIRNG yielded an amyloid nucleation score of 0.138 ± 0.87.

Regarding EFGRDNHVLVLWMGRAPSDM, the amyloid nucleation score was -0.436 ± 0.55.

In turn, HNWCRSSRRVVMSFMCKTKL yielded an amyloid nucleation score of 0.412 ± 1.1.

CYPPEVF came in with an amyloid nucleation score of 1.31 ± 0.67.

Regarding SCWVDSDHLNCFIYFTFVNT, the amyloid nucleation score was -1.27 ± 2.7.

Turning to DCPSS, the amyloid nucleation score turned out to be 0.537 ± 0.29.

In the case of NLSAVRLAYLPCVSHTHCAV, the amyloid nucleation score was 0.875 ± 0.45.

Regarding GVCALAHRAPIWDQFVGMLV, the amyloid nucleation score is 0.109 ± 0.28.

Consider LPVFELSHTHSVKSLDGNGQ, for which the amyloid nucleation score was -0.308 ± 0.33.

As to TSMPDLGWAVSVAAQFYNFQ, the amyloid nucleation score turned out to be 5.5 ± 0.077.

For GSMEHCNRNRFFFMGERLLR, the amyloid nucleation score was -1.1 ± 2.7.

For the substance FTMKMGYMVAFIW, the amyloid nucleation score is -0.394 ± 0.25.

The substance EQAGVRVTDYVAVELLFWRF displayed an amyloid nucleation score of 0.826 ± 0.39.

Consider FPCLTSSTSGYWSLI, for which the amyloid nucleation score came to 1.32 ± 0.12.

Turning to NSDNSGWWRLLYIVESGISS, the amyloid nucleation score was found to be 0.019 ± 1.4.

For the substance RHVYW, the amyloid nucleation score came to 0.551 ± 0.39.

On to GWQDSLYLYYFTKFCRNQGG, for which the amyloid nucleation score is -0.559 ± 0.46.

Consider SEGKHNCKLT, for which the amyloid nucleation score is -0.635 ± 0.95.

RIPRFLNSLSEYYYLDFHYG had an amyloid nucleation score of 1.15 ± 0.23.

As to DLQSSSDNLLGYMCFSCCKH, the amyloid nucleation score is -0.463 ± 0.98.

YCGMCVYLISYMATFNCYYY showed an amyloid nucleation score of 3.54 ± 0.1.

CRASFACERDNIS returned an amyloid nucleation score of 0.547 ± 0.31.

For HNMGWLFLLAVYLQMFT, the amyloid nucleation score was -0.765 ± 1.1.

CYGFLVSMMSYLSLVELVFL: the amyloid nucleation score was -0.04 ± 0.26.

With MFRSRGLMAQRYNFGTQLSY, the amyloid nucleation score result was “inactive”.

The substance SGTFLTFPYFIFCNVMICMS gave an amyloid nucleation score of 6.969 ± 0.049.

QFSRTRFFICGLGRSAPAVR returned an amyloid nucleation score of 1.53 ± 0.85.

For ILSPRVPINRICAVEQRRGI, the amyloid nucleation score is -0.952 ± 0.83.

As for VTHVFYAVLGGMRMGLNFPT, the amyloid nucleation score is -0.192 ± 0.4.

For the substance AGLPRSGSIQRDYREKVWAA, the amyloid nucleation score was -0.194 ± 1.3.

Turning to SYAFLCNGSSRGLIIAMVLT, the amyloid nucleation score is -0.057 ± 0.29.

Turning to FSSSWELVRLYTASCKHDSK, the amyloid nucleation score worked out at 0.782 ± 0.2.

In the case of IFSGECHVYVGSRQGWALVI, the amyloid nucleation score was -0.22 ± 0.98.

On to GVVCCTANF, for which the amyloid nucleation score was 5.68 ± 0.065.

Take NIVIIVVSNLN: the amyloid nucleation score was found to be 3.44 ± 0.082.

As to GRLHRRDMIGRHVDDSGPMS, the amyloid nucleation score result was “inactive”.

NGSRYLANYSQS showed an amyloid nucleation score of 0.23 ± 0.36.

For YLLYEVSVLNYRPL, the amyloid nucleation score was -0.285 ± 0.32.

CCTNM yielded an amyloid nucleation score of 0.332 ± 0.22.

As for CWPRWNSVSLGSLSILLCFF, the amyloid nucleation score was found to be 3.77 ± 0.11.

With LKYTVPGLISPGFLGVVDYV, the amyloid nucleation score was -0.624 ± 0.34.

In the case of LRSKFRCLSILVRMVIIDCF, the amyloid nucleation score is 0.457 ± 0.62.

In turn, GDVPYRNMHCPRFLMREMVV had an amyloid nucleation score of 0.354 ± 0.25.

Turning to GVSMVGGHATLLG, the amyloid nucleation score was -0.206 ± 1.2.

Consider GRSSTRRNLIVDQSSVSERC, for which the amyloid nucleation score is -0.009 ± 0.53.

On to GTWLSMLDSSV, for which the amyloid nucleation score is -0.32 ± 0.79.

Take NMAMYSIWGGWWMVLFCVLL: the amyloid nucleation score result was “inactive”.

CGWRSLVVFSFDLDAS yielded an amyloid nucleation score of 0.876 ± 0.47.

For the substance RVGNNLNFM, the amyloid nucleation score is -0.915 ± 0.3.

As to TRDTLIWFGRFGSMTDWCSW, the amyloid nucleation score stood at 0.192 ± 0.63.

With LRHMLIAAFSDWVKYWGCAR, the amyloid nucleation score stood at 0.194 ± 0.51.

Substance CCYYTSVILVFDGRFDEMPY registered an amyloid nucleation score of 4.23 ± 0.07.

In turn, PFNFIPFAYRLYRKTYRTSH gave an amyloid nucleation score of 0.165 ± 0.46.

As for HSDFQDFMTDFGHDAFFKDW, the amyloid nucleation score came out at 0.096 ± 0.4.

As for VVNVQMNQPYMQCFPQDTR, the amyloid nucleation score turned out to be 3.93 ± 0.082.

On to IRRYPAFFFNVYPSTSMFCS, for which the amyloid nucleation score was -1.21 ± 0.88.

With PSVTTS, the amyloid nucleation score is -0.482 ± 0.58.

With ITVLSS, the amyloid nucleation score is 1.47 ± 0.46.

In the case of LCKIKESNDLFSARSIVAHQ, the amyloid nucleation score was 1.06 ± 0.59.

SVMAGSYITPVRMRKKKLFV: the amyloid nucleation score entry is “inactive”.
